As usually defined, the EC50 (read off the curve) is the concentration that produces a half-maximal response. What is called Kd is the free concentration of one partner at which half of the binding sites on the other are occupied at equilibrium, for simple one-to-one binding.

Primed or numbered codes have the meaning given here. Where no end group is shown, it is not given here. Side-chain parts run from the residue outwards. membrane = cellular membrane (peptide-display support, peptide attached at its C-terminus via a stable linker); stable linker = not defined here; PEG(6) = PEG(6) linker

The values below come from US20240025965A1 (UNIVERSITEIT TWENTE, published 2024).

In experiment [1] the target is T1, α5β1 human recombinant protein (human, UniProt P08648 42-995; P05556 21-728).
T1 construct: Bought from R&D Systems; also called α5β1 receptor; integrin α5β1
T1 sequence (P08648 42-995 limits assumed, chain 1 of 2): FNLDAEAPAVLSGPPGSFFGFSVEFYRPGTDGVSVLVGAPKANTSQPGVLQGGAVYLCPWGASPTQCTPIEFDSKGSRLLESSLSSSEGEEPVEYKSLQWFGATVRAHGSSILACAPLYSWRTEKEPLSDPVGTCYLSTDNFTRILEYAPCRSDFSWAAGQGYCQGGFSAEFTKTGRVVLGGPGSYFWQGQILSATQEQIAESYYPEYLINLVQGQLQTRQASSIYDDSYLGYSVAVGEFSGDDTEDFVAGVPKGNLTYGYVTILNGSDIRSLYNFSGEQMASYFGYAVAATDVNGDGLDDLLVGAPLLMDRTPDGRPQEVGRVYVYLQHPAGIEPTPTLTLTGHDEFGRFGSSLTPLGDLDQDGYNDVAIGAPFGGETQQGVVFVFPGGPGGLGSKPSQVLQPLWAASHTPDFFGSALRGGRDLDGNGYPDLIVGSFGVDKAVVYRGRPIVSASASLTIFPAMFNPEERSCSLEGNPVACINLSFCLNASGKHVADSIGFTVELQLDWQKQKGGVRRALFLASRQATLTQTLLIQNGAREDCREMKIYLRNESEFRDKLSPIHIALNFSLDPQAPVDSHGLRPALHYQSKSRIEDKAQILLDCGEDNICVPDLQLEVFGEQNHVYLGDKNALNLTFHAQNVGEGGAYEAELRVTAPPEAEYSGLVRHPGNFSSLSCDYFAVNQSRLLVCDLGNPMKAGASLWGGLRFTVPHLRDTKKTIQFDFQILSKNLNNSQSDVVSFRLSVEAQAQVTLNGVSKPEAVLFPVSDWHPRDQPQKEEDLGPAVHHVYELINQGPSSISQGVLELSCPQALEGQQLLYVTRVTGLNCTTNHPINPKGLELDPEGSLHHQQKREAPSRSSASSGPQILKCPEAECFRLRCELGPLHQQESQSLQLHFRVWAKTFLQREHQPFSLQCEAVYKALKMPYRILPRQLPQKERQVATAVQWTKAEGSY
T1 sequence (P05556 21-728 limits assumed, chain 2 of 2): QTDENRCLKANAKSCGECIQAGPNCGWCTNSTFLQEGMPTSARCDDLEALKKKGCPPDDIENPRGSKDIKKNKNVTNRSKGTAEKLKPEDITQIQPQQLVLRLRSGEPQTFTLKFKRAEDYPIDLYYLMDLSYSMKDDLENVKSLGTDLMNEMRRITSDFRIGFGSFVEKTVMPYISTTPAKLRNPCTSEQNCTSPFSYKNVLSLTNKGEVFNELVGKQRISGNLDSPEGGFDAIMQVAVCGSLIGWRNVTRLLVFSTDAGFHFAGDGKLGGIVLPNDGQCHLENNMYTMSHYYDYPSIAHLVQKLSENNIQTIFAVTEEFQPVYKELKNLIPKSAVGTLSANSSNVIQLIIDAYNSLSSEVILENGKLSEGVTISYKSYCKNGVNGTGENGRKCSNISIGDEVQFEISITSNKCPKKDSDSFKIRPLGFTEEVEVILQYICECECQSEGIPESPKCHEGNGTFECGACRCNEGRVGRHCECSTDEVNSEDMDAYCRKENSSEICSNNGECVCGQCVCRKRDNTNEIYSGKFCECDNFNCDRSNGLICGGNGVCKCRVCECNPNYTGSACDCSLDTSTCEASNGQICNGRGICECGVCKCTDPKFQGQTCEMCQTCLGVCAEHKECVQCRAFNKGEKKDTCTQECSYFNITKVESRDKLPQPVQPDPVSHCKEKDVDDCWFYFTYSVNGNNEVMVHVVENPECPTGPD
Nature of the experiment: overlapping peptides on membrane incubated with 5 µg/ml α5β1; bound receptor transferred and detected with anti-alpha5 antibody. As to the method:
Peptides were attached to their c-terminal site using stable linker. […] The peptide-displaying […] membrane was soaked in methanol for 1 minute and rinsed in Tris-buffered saline (TBS) and washed three times. Then, the membrane was blocked with 3% BSA in 0.05% TWEEN®-20 containing TBS (TBST) for 3 hours at room temperature. Then, the membrane was washed for 10 minutes with TB ST and incubated with 5 μg/ml α5β1 human recombinant protein (R&D systems) in 3% BSA in TB ST for 1 hour at room temperature and then overnight at 4° C. Subsequently, the membrane was washed three times with TB ST. Thereafter, the bound receptor to the membrane was transferred to the PVDF membrane. To achieve this, first, the PVDF membrane was soaked in methanol for 1 minute and then blocked with 5% skimmed fat milk for 2 hours. Then, the membrane was incubated with primary anti-alpha5 integrin antibody (Sigma-Aldrich) for overnight in 5% skimmed milk. The membrane was washed three times with TBST and then incubated with anti-rabbit-HRP secondary antibody (Dako), washed and developed with chemiluminescence detection kit.
The domains 9 and 10 of FN were chosen to design peptides, as these domains were reported to be responsible for binding to the α5β1 receptor, as shown with the docking experiments (Nagae et al, 2012 J. Cell Biol. 131-140). The interaction studies were performed against human recombinant integrin α5β1 receptor and the bound proteins were transferred to another membrane and ITGA5 was detected with antibodies. Many sequences appeared to bind to the α5β1 receptor from human and mouse domains, the strongest binding was obtained with 2 sequences from human FN-III domain 10 as follows.

The target of experiment [2] is T1, α5β1 human recombinant protein. Nature of the experiment: microscale thermophoresis, 1 µM labelled peptide with rising concentrations of the receptor in solution. The protocol:
(§1) Fluorescent labeled peptide (AV3-PEG(6)-5FAM or AXI-I-PEG(6)-FITC) (1 μM) was incubated with different concentrations of a human recombinant receptor (i.e., α5β1, α11β1 or αvβ3) for 10 minutes in Eppendorf tubes. The mixture of peptide and receptor was loaded in to NT.115™ hydrophilic glass capillaries. In order to find the best thermophoretic setting, the binding of peptide to the target receptor was examined at low (20%), middle (40%), and high (80%) MST power and all other binding experiments were performed using the same MST-settings. Finally, the dissociation constant (Kd) value was calculated from an average of three experiments.
(§2) Fluorescent labeled peptides (AV3-PEG(6)-5FAM and AXI-I-PEG(6)-FITC) were examined for their binding affinities against α5β1 and α11β1 receptors, respectively using microscale thermophoresis (MST). MST allows peptides to interact with the receptors in solution phase. These peptides were also exposed to an irrelevant receptor of the integrin family αvβ3 and MST analyses were performed.
(In general: In MST a laser heats a spot of the sample, and binding alters the fluorescence response.)

Experiment [3] shares this target. Nature of the experiment: microscale thermophoresis, 1 µM labelled peptide, receptor titrated, in solution. The protocol: as §1, §2
The target in experiment [4] is T2, human recombinant receptor αvβ3 (human, UniProt P06756 31-992; P05106 27-718, limits assumed).
T2 construct: also called irrelevant receptor of the integrin family
T2 sequence (P06756 31-992 limits assumed, chain 1 of 2): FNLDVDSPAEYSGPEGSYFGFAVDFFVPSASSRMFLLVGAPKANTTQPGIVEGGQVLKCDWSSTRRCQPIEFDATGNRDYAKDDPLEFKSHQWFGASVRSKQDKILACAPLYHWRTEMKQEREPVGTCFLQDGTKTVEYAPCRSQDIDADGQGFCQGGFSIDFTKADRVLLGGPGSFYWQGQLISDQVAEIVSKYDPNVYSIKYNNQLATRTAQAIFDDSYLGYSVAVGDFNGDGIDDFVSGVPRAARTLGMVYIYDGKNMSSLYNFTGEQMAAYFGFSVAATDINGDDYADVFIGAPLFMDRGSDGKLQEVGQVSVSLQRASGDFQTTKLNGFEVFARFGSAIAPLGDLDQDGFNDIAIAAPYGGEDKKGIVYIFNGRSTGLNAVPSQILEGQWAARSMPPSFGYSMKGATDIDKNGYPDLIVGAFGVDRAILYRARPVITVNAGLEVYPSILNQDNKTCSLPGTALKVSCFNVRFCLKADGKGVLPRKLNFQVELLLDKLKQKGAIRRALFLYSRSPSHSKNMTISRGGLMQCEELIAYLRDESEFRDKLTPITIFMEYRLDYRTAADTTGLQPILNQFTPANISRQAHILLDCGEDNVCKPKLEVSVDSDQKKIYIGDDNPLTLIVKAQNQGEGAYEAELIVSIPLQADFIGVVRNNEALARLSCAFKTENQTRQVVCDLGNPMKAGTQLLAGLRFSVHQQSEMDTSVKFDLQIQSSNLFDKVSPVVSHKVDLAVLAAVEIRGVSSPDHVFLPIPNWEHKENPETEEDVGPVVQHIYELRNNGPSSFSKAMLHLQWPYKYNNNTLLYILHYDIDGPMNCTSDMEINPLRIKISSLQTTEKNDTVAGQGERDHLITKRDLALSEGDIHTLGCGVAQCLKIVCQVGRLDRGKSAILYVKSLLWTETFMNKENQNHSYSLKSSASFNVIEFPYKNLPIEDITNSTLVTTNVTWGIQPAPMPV
T2 sequence (P05106 27-718 limits assumed, chain 2 of 2): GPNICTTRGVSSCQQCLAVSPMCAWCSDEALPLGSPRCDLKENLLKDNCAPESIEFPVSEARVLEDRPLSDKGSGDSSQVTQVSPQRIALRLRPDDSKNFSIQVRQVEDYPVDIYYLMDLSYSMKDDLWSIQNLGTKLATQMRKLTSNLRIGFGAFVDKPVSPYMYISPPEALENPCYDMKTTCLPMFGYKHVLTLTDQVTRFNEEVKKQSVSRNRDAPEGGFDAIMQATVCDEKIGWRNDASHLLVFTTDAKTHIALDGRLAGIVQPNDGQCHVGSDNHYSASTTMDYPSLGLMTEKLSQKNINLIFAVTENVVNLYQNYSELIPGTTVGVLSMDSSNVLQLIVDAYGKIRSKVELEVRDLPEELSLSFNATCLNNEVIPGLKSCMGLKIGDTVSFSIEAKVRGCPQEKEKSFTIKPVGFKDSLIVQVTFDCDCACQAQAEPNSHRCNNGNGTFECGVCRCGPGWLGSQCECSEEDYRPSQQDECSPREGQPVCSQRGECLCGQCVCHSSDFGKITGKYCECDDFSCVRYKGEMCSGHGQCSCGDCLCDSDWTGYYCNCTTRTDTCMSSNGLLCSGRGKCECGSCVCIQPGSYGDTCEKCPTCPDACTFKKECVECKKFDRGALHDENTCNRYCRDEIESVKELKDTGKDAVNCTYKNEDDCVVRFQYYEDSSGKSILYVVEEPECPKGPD
Described as above. The protocol:
as §1, §2

Experiment [5] addresses T1, α5β1 human recombinant protein. As to the kind of experiment: competition: unlabelled AV3 in excess against nAV2-FITC on coated α5β1 receptor, fluorescence intensity (counts). The protocol: (§3) The purified human recombinant α5β1 or α11β1 receptors (5 μg/ml in PBS) were coated onto 96-well ELISA plates (White Maxisorb-Nunc) by incubating overnight at 4° C. Then, the wells were blocked with blocking buffer (5% (w/v) BSA, 150 mM Nacl, 25 mM Tris) for 2 hours at room temperature. Then, the wells were washed three times with 200 μl of washing buffer (150 mM Nacl, 25 mM Tris-base, 0.005% TWEEN® 20, 0.5% BSA). Thereafter, the peptides conjugated with PEG(6)-FITC were diluted to different concentrations in washing buffer. For the competitive studies, the wells were co-incubated with 10-fold higher amount of unlabeled peptides. The plates were incubated at 37° C. for 60 minutes. Then, the wells were washed three times with washing buffer and subsequently, the plates were read for the fluorescein signal Ex/Em 485 nm/520 nm using a fluorescent plate reader (Perkin Elmer).
(§4) Blocking of the peptide with 10-fold excess of unlabeled peptide blocked the binding of nAV2-PEG(6)-fluorescein. In addition, a new short peptide (RYYRITY (SEQ ID NO:8), called AV3) was also designed because seq. 3 and seq. 4 (see the sequences above) had “YYRITY” (SEQ ID NO:10) as common amino acids and the N-terminal of the seq. 4 was crucial for the binding to the receptor. […] Therefore, AV3 was selected to move with further studies.

The target of experiment [6] is T3, rhIntegrin α11β1 (human, UniProt Q9UKX5 23-1141; P05556 21-728, limits assumed).
T3 construct: Bought from R&D Systems; also called α11β1 receptor; ITGA11 receptor
T3 sequence (Q9UKX5 23-1141 limits assumed, chain 1 of 2): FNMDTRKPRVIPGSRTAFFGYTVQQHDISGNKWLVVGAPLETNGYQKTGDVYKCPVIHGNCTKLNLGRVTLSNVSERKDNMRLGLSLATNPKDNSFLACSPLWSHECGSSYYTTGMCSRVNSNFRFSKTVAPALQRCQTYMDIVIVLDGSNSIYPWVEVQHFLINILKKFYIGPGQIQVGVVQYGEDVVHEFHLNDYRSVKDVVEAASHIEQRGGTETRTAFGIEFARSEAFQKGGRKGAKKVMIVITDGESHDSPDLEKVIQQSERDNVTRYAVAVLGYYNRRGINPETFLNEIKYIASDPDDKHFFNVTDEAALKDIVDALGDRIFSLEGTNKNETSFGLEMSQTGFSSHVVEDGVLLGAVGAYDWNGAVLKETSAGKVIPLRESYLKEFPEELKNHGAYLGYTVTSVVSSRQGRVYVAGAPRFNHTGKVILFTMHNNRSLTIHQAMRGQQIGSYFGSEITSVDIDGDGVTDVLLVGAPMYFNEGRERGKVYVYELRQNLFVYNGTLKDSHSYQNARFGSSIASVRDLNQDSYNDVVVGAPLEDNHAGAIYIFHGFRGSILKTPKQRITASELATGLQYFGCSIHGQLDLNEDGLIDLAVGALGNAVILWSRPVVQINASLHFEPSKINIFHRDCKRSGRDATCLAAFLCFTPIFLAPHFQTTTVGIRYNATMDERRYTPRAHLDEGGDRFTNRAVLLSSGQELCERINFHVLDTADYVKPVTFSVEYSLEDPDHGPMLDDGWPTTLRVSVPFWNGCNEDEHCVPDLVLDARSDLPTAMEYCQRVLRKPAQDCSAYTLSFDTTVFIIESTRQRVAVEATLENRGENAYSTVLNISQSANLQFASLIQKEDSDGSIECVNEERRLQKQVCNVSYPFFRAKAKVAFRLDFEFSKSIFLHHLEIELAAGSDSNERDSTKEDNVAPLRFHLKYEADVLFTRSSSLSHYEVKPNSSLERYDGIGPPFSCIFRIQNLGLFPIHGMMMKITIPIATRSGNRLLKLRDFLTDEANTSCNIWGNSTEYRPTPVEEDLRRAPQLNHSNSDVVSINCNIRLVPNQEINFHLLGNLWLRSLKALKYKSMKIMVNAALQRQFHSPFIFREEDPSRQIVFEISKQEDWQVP
T3 sequence (P05556 21-728 limits assumed, chain 2 of 2): as the sequence (P05556 21-728 limits assumed, chain 2 of 2) above
As to the kind of experiment: competition: unlabeled AXI-I in 10-fold excess against AXI-I-FITC on coated α11β1 receptor, fluorescence intensity. As to the method:
Purified ITGA11 receptor (α11β1; 100 μg/ml—stock; R&D systems) was diluted to 5 μg/ml with 1×PBS. 96-well ELISA White Maxisorb plate (Nunc) was coated with 50 μl of 5 μg/ml ITGA11 (or as control α5β1) receptor for overnight at 4° C. Then, wells were blocked for 3-4 hours with 200 μl of blocking buffer (1×PBS containing 5% BSA). Wells were washed three times with 200 μl of washing buffer (1×PBS containing 0.5% BSA and 0.05% TWEEN®-20). Peptides conjugated with FITC were diluted to different concentrations in washing buffer and then added to the plate and incubated at 37° C. for 1 hour. In addition, the binding of the peptide was blocked by co-incubation with 10× higher amount of unlabeled peptide. Subsequently, wells were washed three times with washing buffer. Then, 100 μl of 1×PBS was added and plates were read at 485 nm/520 nm with a fluorescence plate reader.

For experiment [7], the target named is T3, rhIntegrin α11β1. As to the kind of experiment: phage ELISA on coated rhIntegrin α11β1, HRP-anti-M13 antibody, read at 490 nm; control coatings rhIntegrin α4β1 (Bar 2) and no coating (Bar 3); one phage dose, no concentration given. As to the method:
For each clone, 20 mL of LB medium was inoculated with ER2738 and incubated at 37° C. until slightly turbid. Single plaque of phages were inoculated to each culture and then incubated at 37° C. with vigorous aeration for 4.5 hours. The cultures were transferred to a fresh centrifuge tube and centrifuged for 10 minutes at 10,000 rpm. The upper 80% of the supernatant was transferred to a fresh tube and precipitated with PEG/NaCl twice. Then the pellet was suspended in 250 μL TBS. The 96-well ELISA plate was coated with 100 μL of 1 μg/mL target in coating buffer and incubated at 4° C. overnight. Then, the plate was washed once with the washing buffer (0.1% TWEEN® in TBS). All wells were blocked with 250 μL of blocking buffer at 4° C. for 1-2 hours. Then, the plate was washed 6 times with the washing buffer and slapping on a paper towel to remove excess buffer. Thereafter, 100 μL of phage virions was added per well. In competitive phage ELISA, competitive antigen was mixed with phages in washing buffer and added to the wells and incubated at room temperature for 1-2 hours with agitation. The plate was washed 6 times with washing buffer. HRP-conjugated anti-M13 antibody (GE healthcare, 1:5000 in blocking buffer) was added to each well and incubated at room temperature for 1 hour with agitation. […] The plates were read using a microplate reader at 490 nm.
A general note: An ELISA detects its analyte on a solid surface through an enzyme-linked reagent.

The target of experiment [8] is T1, α5β1 human recombinant protein. As to the kind of experiment: FITC-labelled peptide on coated α5β1 receptor in a 96-well plate, fluorescence intensity (counts). As to the method:
as §3, §4

B1: TNLLVRYSPVKN (peptide)
peptide: TNLLVRYSPVKN-{stable linker-membrane}
modifications: reading uncertain
Take B1: the binding result in experiment [1] is given as “binds”.

B2: AV3-PEG(6)-5FAM (peptide)
peptide: RYYRITY
modifications: also: PEG(6)-5FAM conjugated, site not given here
notes: also called AV3 peptide (fluorescent labeled)
B2: in experiment [2], the half-maximal effective concentration (EC50 (read off the curve)) is roughly 100 nM. Moreover, the dissociation constant (Kd) in experiment [3] was 97.8 nM; in experiment [4], 36100 nM.

B3: AV3 peptide RYYRITY (peptide)
peptide: RYYRITY
notes: Unlabelled; On the peptide microarray it is linked by its N-terminus to a glass slide through a PEG linker
In the case of B3, the binding result in experiment [5] was “binds”.

B4: AXI-I peptide SGLTEWLRWFNS (peptide)
peptide: SGLTEWLRWFNS
notes: Unlabelled peptide; On the peptide microarray it is linked by its N-terminus to a glass slide through a PEG linker; also called unlabeled AXI-I
Take B4: the binding result with rhIntegrin α11β1 [6] is recorded as “binds”.

B5: Phage clones 11, 13, 14, 16, 19, 20, 21, 22, 24, 25, 28, 29, 30, 31 and 38 displaying AXI-I (peptide)
chain: SGLTEWLRWFNS
notes: Whole phage virions in the phage ELISA; not shown: phage coat protein of the Ph.D.12 library
Consider B5, for which, in the experiment with rhIntegrin α11β1 [7], the binding result is “binds”.

B6: Phage clone 27 displaying AXI-II (peptide)
chain: SFATWTPNFERN
notes: as for B5
In the case of B6, in the experiment with rhIntegrin α11β1 [7], the binding result is on record as “binds”.

B7: FITC-labeled nAV2: YYRITYGETGGN-K-PEG(6)-Fluorescein (peptide)
peptide: YYRITYGETGGNK([PEG(6)-fluorescein])
notes: also called nAV2-FITC; nAV2-PEG(6)-fluorescein
On to B7, for which the binding result in experiment [8] is given as “binds”.
